Test: label from the status in PepcDB records

Sequence | protein production
QNRGSLSTARSYISMGVGRVYVMKDSPNDIELTMAEGVDVGRYVDYRELAIKIADNRIDVKKNKEIINSRFKLKYKNLSSIYN | failed
MTGCSHRFYYSHMIQTSVRSFEVGEDLASMAVDERISLLRSRMQSISKSGDFSLDYNCKTADKNIIPLSDPLSHVLPWGGLPRGMIVESTITPLLAILFIAQVSGSGRRVGVVGWPDLNYAGVLGYGGCYERIFAVPQQERTSLRVVTALAHGCDLVITRAGPTPRTYTPLQTQRFRNSLRSDAGCVIMMGDHVVSPAARLASAVVGYHGIGKGTGRIKAVEITVTGIAKGFYRTSRVIVGKHIAPAAEKTTMKVVLEHHHHHH | not failed
MDTELMKLDVHVTAWSRTPSSSGFLNSVMISRDRDFEEFIINDRDGSVTSLGSYQNPSRGPDPLIFLDFRNFEPNYVYQLLLSQFHDHVLSEHIADQIGYTFGTCNSPTSTTDLDQESEEEE | failed
MLIDSLHVSFDSFNFESILPMLVLVCGGIFTLLINAFTSRFSRNLNVFLCMLFLVLDFLVVLGLEEQENAFFGFLSLDTLSLISQSIVLISAFLLIFLALSKERFNEFQTAEFYSLYLFIVAGFQFMVSSNHLLLILIGLETASLPLCVLMALSDKRYGLEAGIKYFTMGAMASAFFAMGAMAFYLLTGSLNLEVITLYLHTEGITNPMLFAMGAIFLIGAIGFKVSLVPFHTWMPDVYEGNNPVFASYISIVPKIAGFVVATRLFGAFIDTRTAWVEDIFYVLILMTITIPNFIALWQEDVKRMLAYSSISHSGFALACVFIHTEDSQQAMFVYWFMFAFTYIGAFGLLWLLKSREKTWDERYDHPYSKFNGLIKTHPLVAILGAIFVFGLAGIPPFSVFWGKFLAVESALESNHILLAVVMLVNSAVAAFYYFRWLVAMFFNKPLQSYAQNDIYTQNATMPIYAVIIAMALACLFSVFMMRGLLEFVA | failed
MSSERQLAGRIVVPGEPLPEEVEASPPYVIDYKGVKRATVVGLLREKGDGGGRAFVKLKEIYVPQAGDVVIGLIQSVGIMNWFVDINSPYVAVLSVQDFLGRPFNPAVDDMQSLLKVGDYIKAKVVAFDKTRSPLLTVQGEGLGRIVRGKIVEISPAKVPRVIGRKMSMLKTLEEKTECKIFVARNGRIHLECPNEDLEAIAVMAIKIIDEEAYTSGLTKRIIKFIEEERRIREV | not failed
MKRLMTSLAALSLTAGLAHAQAADVPDNLEKLSNFQSTGATDFTFVEQGGDFADGIKRNLERIKLPQGFRIGLYAVVPDARHMAVGPQGIVTFVGTRKDKVWAVTDRNKDRVADEVKDFAPSLRFTIPNGPCFSKDGFLYIAEQNRVLLFPAAEFFYESGDVAAFNLVKQGELIPVEEESFNHTARVCDIGPDGMIYITLGQPFNVPAPEKRELYDKWGIGGIVRMKTDGTGREVFARGIRNSVGMDIDPETGNVWFTDNQVDGMGDDIPPGEINRATEPGQNFGFPWYGGGSIRTNEYKDEEPPADAVMPVVEMDAHAADLGMMFYTGSMFPEEYRGAIFSAQHGSWNRTTPVGARVMVTTLAEDGTATTKPFAEGWIDENGEYLGRPVDVAQLRDGSILVSDDLVGAIYRIWYQPE | failed
QELKGKYMKTPTGYLMVLRHGDNVLQNLEQLARDEHIPSASFVGIGFMSEATFGFYDFGRKQFDPKTYRNVEMANMTGSIAWKEGKPSIHAHGTVTDGTFQGAGGHLLGLTVGTGSCEITVTVYPQRLDRFVDPEIQANVLGLPQQ | not failed
MTTRLLQLTRPHYRLLSLPLQKPFNIKRQMSAANPSPFGNYLNTITKSLQQNLQTCFHFQAKEIDIIESPSQFYDLLKTKILNSQNRIFIASLYLGKSETELVDCISQALTKNPKLKVSFLLDGLRGTRELPSACSATLLSSLVAKYGSERVDCRLYKTPAYHGWKKVLVPKRFNEGLGLQHMKIYGFDNEVILSGANLSNDYFTNRQDRYYLFKSRNFSNYYFKLHQLISSFSYQIIKPMVDGSINIIWPDSNPTVEPTKNKRLFLREASQLLDGFLKSSKQSLPITAVGQFSTLVYPISQFTPLFPKYNDKSTEKRTILSLLSTITSNAISWTFTAGYFNILPDIKAKLLATPVAEANVITASPFANGFYQSKGVSSNLPGAYLYLSKKFLQDVCRYRQDHAITLREWQRGVVNKPNGWSYHAKGIWLSARDKNDANNWKPFITVIGSSNYTRRAYSLDLESNALIITRDEELRKKMKAELDNLLQYTKPVTLEDFQSDPERHVGTGVKIATSILGKKL | failed
MLSIMTFREFMKENGYEVKTKFWEDFSLAERFGLSAIQDTFNRAFKEWKEDYEFLTELVLVLNHKIWQYHEKRPEFAELYNTLEEQTDQYAMENLKDEELSYFFDVTDLEHHHHHH | not failed
MGEEATAVAAAGVRPELVREAEVSLLECKVCFERFGHWQQRRPRNLPCGHVVCLACVAALAHPRTLGLECPFCRRACRACDTSDCLPVLHLLELLGSTLHASPAALSAAPFAPGTLTCYHAFGGWGTLVNPTGLALCPKTGRVVVVHDGKRRVKIFDSGGGGAHQFGEKGDAAHDVKYPLDVAVTNDCHVVVTDAGDCSLKVFDFFGQIKLVVGKQFSLPWGVEITPHNGVLVTDAEAGTLHLLEADFPEGVLRRIERLQAHLCSPRGLAVSWLTGAIAVLEHPCAFGRTGCNNTRVKVFNSTMQLIGQVDSFGLNLLFPSKVTASAVTFDHQGNVIVADTSGPAIVCLGKPEEFPALKPIITHGLSRPVALAFTKENSLLVLDTASHSIKVFKVMEGNGG | failed
MAIRSALMNVMLIAVKKAAKGLVRDFGELENLQVSRKGPSDFVSNADLKAEKILKAELRKARPAYSFLMEESGAEDGADTSRRWIVDPLDGTTNFLHGIPHFAISVALEEKGEIVAGVIYNPILDELYTAEKGNGAFVNDRRLRVSGRRDLAESLFATGIPFQGKGGHARFLGQLAKVMAKTSGVRRIGAASLDLAYVAAGRVDGYWEEGLHPWDCAAGILLVKEAGGYVTTLDGKPDPLRQGSLLAANPLMHPLLGELLAEE | failed
LKDVLNILLMDEISKLKDFLSNLDYIKPKVNIEEEIIEIRKEDIINALKLFKGKYEIEVDKIPKAVYVYLVKKNILFLYPQRGTLKPQSFLVWNAIKRVL | not failed
MSSAIERKSLDPSEEPVDEVLQIPPSLLTCGGCQQNIGDRYFLKAIDQYWHEDCLSCDLCGCRLGEVGRRLYYKLGRKLCRRDYLRLFGQDGLCASCDKRIRAYEMTMRVKDKVYHLECFKCAACQKHFCVGDRYLLINSDIVCEQDIYEWTKINGMI | failed
MLDKLTVWIENHLAGPMAKIANQRHLRAVRDGIIATLPLIIVGSFFLIIAFPPLPESWGITQFLTSNAATILLPYRMTMYIMALYATFGIGASLAKSYNLDQVSGGILATIAFLLTLVPVAIPEEASKAAGVSGFVLPMANLGGAGMFVGIVTSIIAVEIYRVTDKSKFKITMPDNVPPAVARSFESLTPTLIVMLLIGSITYYLGFDWHTFVGNLVGPLVQAADSLLSVLLLVFLTTFFWFFGIHGASIVGSLARPLWLQLLEENTTAKAAGEALPRIAAEPFYQWFIWIGGAGATIGLAILLAFRAKSEYGSKLGKAILAPSIFNINEPVIFGVPIVLNPILMIPFIFAPMVLATIAWFATKLGLVSEVVFTAPWTLPGPIGAFMATGGDWRAAVLNIVLILVAILIYYPFFVAYDKNELAKEQGKQIEE | failed
MKILVTGGTGLIGRHFISAFNHKYQFTVLTRNTQKAQLYLPKNIEFIEQLPEQNYFDVIINLAGEPIIDKRWSRAQKENICQSRWNITEKIVEMIARATDKPSCLISGSAIGYYGETGAVSTHEDAKVTHSDFAHTLCQKWEELALKAKEHCRVVLLRTGIVLASDGGALEKMRLPFSLGLGGKLGNGQQYMSWIHIDDMIHAIHFSVQIKCIEGAINCTSPKAITNEVFTKALGKEVNRPTWFSVPAFVLNILMGQGAELLLTSQNIYPQKLLSHGFHFNHSDIEHALADLMTES | failed
MARGEGEFYLAGRRLTGFLSAMTYAATTYSSFMIVGLVGLAYFTGIGSLVFELAYLVATVILLSLFSRRVWRMSRERGWVSPGEMLADLLGSPWVALTASLVFLVSLVPYASAQLKGIAETIVAIAGYSPGDNTAYMVAVGVALLILLAWSLLAGVRGVVLTDAFQGLWMLTAGSLLFLWLASRVFSKSGASEVLSAMESAGLFDMWSATLLIGFVTPWVFFAVTNPQVVQRLYMPKDEESLRRMILYFFLFGLYYTVLVVAIGFLARAGVELGILSIEPQGRDQVTPQLLSLAHPLLAALVFTSIVAASVSTADSIILALASSASRDIGLLVLRLDEKGRLRLGYAAAALFTVLMAVFAATRIGYIVQLSVLSSVMLLGLAPVTIAAWVGLRVHPALAVASIATGPVLVAANVLYSLAVGGEVSLSPAKQVLGVPISVWVLAISLALTAAGIALVRGRR | failed

From a protein production outcome set (Wang et al. 2014)
